This is an account of results in patent US20160251440A1 (Ablynx, published 2016).

Experiment [1] deals with T1, human IL-3Rα (CD123), cell-expressed (human, UniProt P26951 19-378).
T1 construct: whole, on cells; also called IL-3Ra; Hek-IL-3Rα
Description: FACS, MOLM-13 cells. On the technique in general: In flow cytometry, cells or beads pass a laser one at a time.

The target of experiment [2] is T2, recombinant IL-3Rα ectodomain (human, UniProt P26951 19-305).
T2 construct: extracellular domain; also called recombinant IL-3Ra; biotinylated-IL-3Rα ectodomain
T2 sequence (looked up): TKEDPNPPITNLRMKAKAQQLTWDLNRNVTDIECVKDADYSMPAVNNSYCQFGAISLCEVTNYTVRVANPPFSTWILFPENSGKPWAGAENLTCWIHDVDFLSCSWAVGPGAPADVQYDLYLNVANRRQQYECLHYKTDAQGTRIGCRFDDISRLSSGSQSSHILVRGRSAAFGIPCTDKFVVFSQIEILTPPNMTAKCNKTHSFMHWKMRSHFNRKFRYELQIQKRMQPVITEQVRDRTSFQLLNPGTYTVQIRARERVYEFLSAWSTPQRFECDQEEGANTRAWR
As to the kind of experiment: SPR ProteOn, immobilised IL-3Rα ectodomain.

The target in experiment [3] is T2, recombinant IL-3Rα ectodomain. Description: competition ELISA, coated mAb 7G3 + biotinylated IL-3Rα ectodomain. (In general: An ELISA detects its analyte on a solid surface through an enzyme-linked reagent.)
Experiment [4] addresses T1, human IL-3Rα (CD123), cell-expressed. Description: flow cytometry on Molm-13 cells; EC50(M) printed in the legend box beside the curves.
For experiment [5], the target named is T3, human IL12Rβ1, cell-expressed (human, UniProt P42701 24-662).
T3 construct: whole, on cells; in the context of the heterodimeric receptor; also called IL12Rb1
As to the kind of experiment: flow cytometry on isolated CD8+ T cells of donor D863, anti-Flag detection.

Experiment [6] deals with human CXCR4 (on cells, viral lipoparticles or membrane extracts) (human, UniProt P61073 1-352). As to the kind of experiment: cell-based or functional assay.
For experiment [7], the target named is T2, recombinant IL-3Rα ectodomain. Description: ELISA on recombinant IL-3Ra ectodomain (lower right panel).
Experiment [8] has as its target CXCR4 and CD4 co-expressed on cells (MOLM-13, THP-1, MT-4, PBMC; Jurkat CD4 low) (human, UniProt P61073 1-352; P01730 26-458). Description: cell-based or functional assay.
Experiment [9] concerns the target T4, recombinant human CEACAM5 (human, UniProt P06731 35-685).
T4 construct: also called hCEACAM-5; R&D Systems 4128-CM
T4 sequence (looked up): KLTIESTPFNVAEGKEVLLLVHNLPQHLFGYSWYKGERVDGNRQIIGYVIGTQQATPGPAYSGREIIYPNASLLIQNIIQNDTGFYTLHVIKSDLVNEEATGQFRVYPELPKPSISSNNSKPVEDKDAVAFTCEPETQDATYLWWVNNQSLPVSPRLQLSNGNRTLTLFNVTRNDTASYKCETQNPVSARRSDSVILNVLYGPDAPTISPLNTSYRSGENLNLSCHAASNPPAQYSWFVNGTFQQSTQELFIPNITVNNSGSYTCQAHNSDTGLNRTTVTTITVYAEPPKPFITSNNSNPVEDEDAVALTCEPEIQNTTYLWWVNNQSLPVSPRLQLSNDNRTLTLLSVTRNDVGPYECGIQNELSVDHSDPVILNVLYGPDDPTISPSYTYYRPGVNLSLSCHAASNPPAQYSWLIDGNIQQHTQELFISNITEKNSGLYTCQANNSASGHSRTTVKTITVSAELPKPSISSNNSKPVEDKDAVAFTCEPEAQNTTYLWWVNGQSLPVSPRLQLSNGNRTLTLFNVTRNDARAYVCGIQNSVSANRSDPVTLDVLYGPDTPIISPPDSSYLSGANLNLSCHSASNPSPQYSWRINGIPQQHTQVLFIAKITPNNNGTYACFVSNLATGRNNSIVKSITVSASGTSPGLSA
Description: SPR Biacore T100, immobilised hCEACAM-5.

CXCR4 and CD4 co-expressed on cells (MOLM-13, THP-1, MT-4, PBMC; Jurkat CD4 low), sequence (P61073 whole entry, chain 1 of 2, other chains not shown): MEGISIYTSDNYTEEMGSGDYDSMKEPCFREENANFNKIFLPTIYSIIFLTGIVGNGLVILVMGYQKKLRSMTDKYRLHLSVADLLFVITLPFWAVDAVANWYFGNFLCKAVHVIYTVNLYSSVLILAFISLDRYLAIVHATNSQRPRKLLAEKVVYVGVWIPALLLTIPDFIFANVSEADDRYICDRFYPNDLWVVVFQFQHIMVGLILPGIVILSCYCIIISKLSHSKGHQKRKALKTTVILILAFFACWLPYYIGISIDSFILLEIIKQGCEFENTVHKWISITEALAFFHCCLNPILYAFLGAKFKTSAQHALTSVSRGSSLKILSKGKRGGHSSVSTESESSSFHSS
human CXCR4 (on cells, viral lipoparticles or membrane extracts), sequence (P61073 whole entry, the tested form may be a part): as the sequence (P61073 whole entry, chain 1 of 2, other chains not shown) above
T1 sequence (P26951 19-378): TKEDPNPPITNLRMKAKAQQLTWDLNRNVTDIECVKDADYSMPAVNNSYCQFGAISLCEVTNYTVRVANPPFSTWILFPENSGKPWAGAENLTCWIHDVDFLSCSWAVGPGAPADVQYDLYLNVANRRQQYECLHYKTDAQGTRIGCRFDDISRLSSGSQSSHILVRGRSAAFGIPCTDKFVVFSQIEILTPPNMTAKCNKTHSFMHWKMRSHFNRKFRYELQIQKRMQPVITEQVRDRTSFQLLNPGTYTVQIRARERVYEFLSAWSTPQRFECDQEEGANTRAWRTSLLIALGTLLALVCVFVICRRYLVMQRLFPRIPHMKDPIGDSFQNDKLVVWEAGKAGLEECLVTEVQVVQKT

B1: 55C05 (VHH)
VHH: EVQLVESGGGLVPAGDSLRLSCVASGRSLNTYTMGWFRQAPGKECEFVAAINWNGVYRDYADSAKGRFTASRDNAMNTVFLQMNSLKPEDTAVYFCATATQGWDRHTEPSDFGSWGLGTQVTVSS
For orientation: EC50 means the concentration needed to bring the measured effect to its halfway point. Read a high EC50 as a less potent agent. The Kd is the equilibrium constant for the complex coming apart. Broadly, the koff is the rate constant with which the complex falls apart. What is called kon is a measure of how fast the partners come together. For orientation: IC50 means the concentration needed to halve the response being measured. In turn, B1 gave a concentration for a half-maximal effect (EC50) in experiment [1] of 31.2 nM. Further, in experiment [2], the Kd was 59 nM, the koff was determined as 0.00741 s⁻¹ and the kon was found to be 126000 M⁻¹ s⁻¹. In addition, the IC50 in experiment [3] is 190 nM. In experiment [4], this molecule had an EC50 of 4100 nM.

B2: 51D09 (VHH)
VHH: EVQLVESGGGLVQPGGSLRLSCAASGSIFSGNTMGWYRQAPGKQRELVAAISSGGSTDYADSVKGRFTISRDNSKNTVYLQMNSLRPEDTAVYYCNAAILLYRLYGYEEGDYWGLGTLVTVSS
For B2, the EC50 in [1] was determined as 15.3 nM. Further, in experiment [2], the Kd amounted to 13.6 nM, the koff is 0.000516 s⁻¹ and the kon is 37800 M⁻¹ s⁻¹. Further, in experiment [4], a half-maximal response (EC50) required 16 nM.

B3: 55B04 (VHH)
VHH: EVQLVESGGGLVQPGGSLRLSCAASGINFRFNSMGWWRRRAPGKEREWVAAITSGDITNYRDSVRGRFTISRDNVKNTVYLQMNTLKLEDTAVYYCNTFPPIADYWGLGTQVTVSS
As for B3, the response in [1] was half-maximal at 51.2 nM (EC50). For the same molecule, in experiment [2], the Kd was found to be 15.8 nM, the koff was found to be 0.00794 s⁻¹ and the kon was 504000 M⁻¹ s⁻¹. Further, the IC50 in experiment [3] is 55 nM. Also, it took 1300 nM to reach a half-maximal effect in experiment [4] (EC50).

B4: cAbLys3 (VHH)
VHH: DVQLQASGGGSVQAGGSLRLSCAASGYTIGPYCMGWFRQAPGKEREGVAAINMGGGITYYADSVKGRFTISQDNAKNTVYLLMNSLEPEDTAIYYCAADSTIYASYYECGHGLSTGGYGYDSWGQGTQVTVSS
notes: also called irrelevant control Nanobody directed to lysozyme
Take B4: the binding result in experiment [5] is on record as “no binding (tested: 250 nM)”.

B5: 57A07-35GS-14D09 (bispecific antibody)
chain: EVQLVESGGGLVQAGGSLRLSCAASGSIFSGNVMGWYRRQAPGKEREWVAAIASGGSIYYRDSVKGRFTISRDNAKNTVYLQMNSLKPEDTAVYYCNSHPPTLPYWGQGTLVTVSSGGGGSGGGGSGGGGSGGGGSGGGGSGGGGSGGGGSEVQLVESGGGLVQAGGSLRLSCVASGISSSKRNMGWYRQAPGKQRESVATISSGGNKDYTDAVKDRFTISRDTTKNTVYLQMNSLKPEDTAVYYCKIEAGTGWATRRGYTYWGQGTLVTVSS
notes: FLAG3-His6 also made; also called CD123#1-CXCR4#1; 57A07-14D09
As a reminder, the EC50 (read off the curve) is the concentration giving half of the maximal effect. With B5, in experiment [6], the “Fold inc. vs CXCR4#1, Jurkat E6-1” value was 0.05 fold and the “IC50, CXCL-12 chemotaxis, Jurkat E6-1” value turned out to be 210 nM. Moreover, the “EC50 (read off the curve)” value in experiment [7] is roughly 0.5 nM.

B6: 281F12-35GS-57A07 (bispecific antibody)
chain: EVQLVESGGGLVQAGDSLRLSCAASGRAFSRYAMGWFRQAPGKEREFVAAIGWGPSKTNYADSVKGRFTISRDNAKNTVYLQMNTLKPEDTAVYSCAAKFVNTDSTWSRSEMYTYWGQGTLVTVSSGGGGSGGGGSGGGGSGGGGSGGGGSGGGGSGGGGSEVQLVESGGGLVQAGGSLRLSCAASGSIFSGNVMGWYRRQAPGKEREWVAAIASGGSIYYRDSVKGRFTISRDNAKNTVYLQMNSLKPEDTAVYYCNSHPPTLPYWGQGTLVTVSS
notes: FLAG3-His6 also made; also called CXCR4#2-CD123#1; 281F12-57A07
For B6, in [6], the “Fold inc. vs CXCR4#2, Jurkat E6-1” value was determined as 2.55 fold; the “Fold inc. vs CXCR4#2, MOLM-13” value stood at 12.6 fold; the “IC50, CXCL-12 chemotaxis, Jurkat E6-1” value amounted to 38 nM; the “IC50, CXCL-12 chemotaxis, MOLM-13” value worked out at 6.83 nM. Besides, the “EC50 (read off the curve)” value in experiment [7] was roughly 0.5 nM.

B7: 03F11-9GS-281F12 (bispecific antibody)
chain: EVQLVESGGGSVQPGGSLTLSCGTSGRTFNVMGWFRQAPGKEREFVAAVRWSSTGIYYTQYADSVKSRFTISRDNAKNTVYLEMNSLKPEDTAVYYCAADTYNSNPARWDGYDFRGQGTQVTVSSGGGGSGGGGSEVQLVESGGGLVQAGDSLRLSCAASGRAFSRYAMGWFRQAPGKEREFVAAIGWGPSKTNYADSVKGRFTISRDNAKNTVYLQMNTLKPEDTAVYSCAAKFVNTDSTWSRSEMYTYWGQGTQVTVSS
Consider B7, for which, in [8], the “IC50, HIV-1 BaL (R5), PBMC” value was greater than 666 nM; the “IC50, HIV-1 NL4.3 (X4), MT-4” value was found to be 14.9 nM; the “IC50, HIV-1 NL4.3 (X4), PBMC” value worked out at 17 nM; the “IC50, HIV-1 NL4.3 (X4), U87” value was greater than 3330 nM.

B8: 55F03 (VHH)
VHH: EVQLVESGGGLVQAGGPLRLSCAASGRTFSSYVMGWFRQAPGKEREFVAAIYWSNGKTQYTDSVKGRFTISGDNAKNTVYLQMNSLNPEDTAVYYCVADKDETGFRTLPIAYDYWGLGTQVTVSS
For the molecule B8, the EC50 in experiment [1] turned out to be 113 nM. In experiment [2], the Kd amounted to 115 nM, the koff came to 0.00487 s⁻¹ and the kon was found to be 42500 M⁻¹ s⁻¹. In [4], this molecule came in with an EC50 of 350 nM.

B9: 14D09-35GS-57A07 (bispecific antibody)
chain: EVQLVESGGGLVQAGGSLRLSCVASGISSSKRNMGWYRQAPGKQRESVATISSGGNKDYTDAVKDRFTISRDTTKNTVYLQMNSLKPEDTAVYYCKIEAGTGWATRRGYTYWGQGTLVTVSSGGGGSGGGGSGGGGSGGGGSGGGGSGGGGSGGGGSEVQLVESGGGLVQAGGSLRLSCAASGSIFSGNVMGWYRRQAPGKEREWVAAIASGGSIYYRDSVKGRFTISRDNAKNTVYLQMNSLKPEDTAVYYCNSHPPTLPYWGQGTLVTVSS
notes: also made with FLAG3-His6 in Pichia; also called CXCR4#1-CD123#1; 14D09-57A07
As to B9, in experiment [6], the “Fold inc. vs CXCR4#1, Jurkat E6-1” value amounted to 0.69 fold; the “Fold inc. vs CXCR4#1, MOLM-13” value stood at 2.39 fold; the “IC50, CXCL-12 chemotaxis, Jurkat E6-1” value stood at 15 nM; the “IC50, CXCL-12 chemotaxis, MOLM-13” value is 3.6 nM. Further, in experiment [7], the “EC50 (read off the curve)” value is roughly 0.5 nM.

B10: CEA#2 (VHH)
VHH: EVQLVESGGGLVQPGGSLRLSCAASGDTYGSYWMGWFRQAPGQGLEAVAAINRGGGYTVYADSVKGRFTISRDNSKNTLYLQMNSLRAEDTAVYYCAASGVLGGLHEDWFNYWGQGTLVTVSS
notes: also called T023200002; humanised variant of NbCEA5
Consider B10, for which, in [9], the Kd is 1.9 nM, the koff stood at 0.0025 s⁻¹ and the kon is 1.3e+06 M⁻¹ s⁻¹.

B11: 03F11-25GS-281F12 (bispecific antibody)
chain: EVQLVESGGGSVQPGGSLTLSCGTSGRTFNVMGWFRQAPGKEREFVAAVRWSSTGIYYTQYADSVKSRFTISRDNAKNTVYLEMNSLKPEDTAVYYCAADTYNSNPARWDGYDFRGQGTQVTVSSGGGGSGGGGSGGGGSGGGGSGGGGSEVQLVESGGGLVQAGDSLRLSCAASGRAFSRYAMGWFRQAPGKEREFVAAIGWGPSKTNYADSVKGRFTISRDNAKNTVYLQMNTLKPEDTAVYSCAAKFVNTDSTWSRSEMYTYWGQGTQVTVSS
As for B11, in [8], the “IC50, HIV-1 BaL (R5), PBMC” value stood at 383 nM; the “IC50, HIV-1 NL4.3 (X4), MT-4” value is 9.22 nM; the “IC50, HIV-1 NL4.3 (X4), PBMC” value was found to be 8.67 nM; the “IC50, HIV-1 NL4.3 (X4), U87” value is greater than 3330 nM.

B12: 50F07 (VHH)
VHH: EVQLVESGGGLVQPGGSLRLSCTGSGSTFSINAMGWYRQAPGKQRELVAAITSGGRTNYADSVKGRFTISRDNSKNTVYLQMNSLRPEDTAVYYCNARISAGTAFWLWSDYEYWGLGTLVTVSS
Turning to B12, the EC50 in experiment [1] was 14.6 nM. Moreover, in experiment [2], the Kd is 74.2 nM, the off-rate constant (koff) worked out at 0.00758 s⁻¹ and the kon came out at 102000 M⁻¹ s⁻¹. Also, the IC50 in experiment [3] is 230 nM. The EC50 in experiment [4] came out at 66 nM.
